The values below come from IntAct's records for PubMed 28533415.

To fix the notation:
B1: Nucleus-vacuole junction protein 1 (Saccharomyces cerevisiae), P38881 (parent)
chain: MTRPPLVRGIFSLGLSVAVLKGVEKTVRKHLERQGWIEPQKVDYELIFTIDRLKNLVDNKREALTAEQPDAGELSWRKVFNFISRQSSELDTRIYVLILLLSFLLPIAWTVLDGDRETTLEDKDNDCNVDLIENERRLKHYNDGERAVLQFGKNRSEPIILSYKDMNVLEGEHEFTSKEEHSNSHLTSKSENALNQVGSEDLLGCHLEKQLEEDKNEPNGEADGEDDNNREKDCSSSSEVESQSKCRKESTAEPDSLSRDTRTTSSLKSSTSFPISFKGSIDLKSLNQPSSLLHIQVSPTKSSNLDAQVNTEQAYSQPFRY
partner: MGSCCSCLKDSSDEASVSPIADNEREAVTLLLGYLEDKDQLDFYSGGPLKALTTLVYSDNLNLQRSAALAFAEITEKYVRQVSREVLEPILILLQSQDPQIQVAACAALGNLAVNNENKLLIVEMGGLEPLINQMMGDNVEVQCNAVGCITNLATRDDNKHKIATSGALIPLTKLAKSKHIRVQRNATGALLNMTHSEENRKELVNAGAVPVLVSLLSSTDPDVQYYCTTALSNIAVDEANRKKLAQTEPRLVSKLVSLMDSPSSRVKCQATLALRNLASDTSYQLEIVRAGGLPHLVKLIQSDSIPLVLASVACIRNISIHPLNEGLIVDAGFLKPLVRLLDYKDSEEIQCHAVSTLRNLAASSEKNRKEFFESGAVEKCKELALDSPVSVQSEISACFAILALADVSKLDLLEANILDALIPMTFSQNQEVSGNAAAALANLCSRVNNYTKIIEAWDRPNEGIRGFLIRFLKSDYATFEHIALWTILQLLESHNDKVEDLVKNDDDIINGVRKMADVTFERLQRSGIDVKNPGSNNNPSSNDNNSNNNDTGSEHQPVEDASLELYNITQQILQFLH
B2: Vacuolar protein 8 (Saccharomyces cerevisiae), P39968 (parent)
chain: B1 partner
partner: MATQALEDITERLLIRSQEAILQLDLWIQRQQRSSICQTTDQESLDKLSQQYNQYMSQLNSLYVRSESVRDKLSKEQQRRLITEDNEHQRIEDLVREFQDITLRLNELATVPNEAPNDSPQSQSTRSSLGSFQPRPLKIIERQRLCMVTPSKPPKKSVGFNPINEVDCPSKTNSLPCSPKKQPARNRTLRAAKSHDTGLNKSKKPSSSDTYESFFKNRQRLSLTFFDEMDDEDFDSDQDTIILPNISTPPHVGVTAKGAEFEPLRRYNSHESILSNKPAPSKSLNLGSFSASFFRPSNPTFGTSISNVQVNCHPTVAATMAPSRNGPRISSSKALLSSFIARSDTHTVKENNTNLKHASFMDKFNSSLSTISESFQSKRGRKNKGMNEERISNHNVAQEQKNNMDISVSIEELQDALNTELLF
B3: Vacuolar protein 8 (Saccharomyces cerevisiae), P39968 (parent)
chain: B1 partner
partner: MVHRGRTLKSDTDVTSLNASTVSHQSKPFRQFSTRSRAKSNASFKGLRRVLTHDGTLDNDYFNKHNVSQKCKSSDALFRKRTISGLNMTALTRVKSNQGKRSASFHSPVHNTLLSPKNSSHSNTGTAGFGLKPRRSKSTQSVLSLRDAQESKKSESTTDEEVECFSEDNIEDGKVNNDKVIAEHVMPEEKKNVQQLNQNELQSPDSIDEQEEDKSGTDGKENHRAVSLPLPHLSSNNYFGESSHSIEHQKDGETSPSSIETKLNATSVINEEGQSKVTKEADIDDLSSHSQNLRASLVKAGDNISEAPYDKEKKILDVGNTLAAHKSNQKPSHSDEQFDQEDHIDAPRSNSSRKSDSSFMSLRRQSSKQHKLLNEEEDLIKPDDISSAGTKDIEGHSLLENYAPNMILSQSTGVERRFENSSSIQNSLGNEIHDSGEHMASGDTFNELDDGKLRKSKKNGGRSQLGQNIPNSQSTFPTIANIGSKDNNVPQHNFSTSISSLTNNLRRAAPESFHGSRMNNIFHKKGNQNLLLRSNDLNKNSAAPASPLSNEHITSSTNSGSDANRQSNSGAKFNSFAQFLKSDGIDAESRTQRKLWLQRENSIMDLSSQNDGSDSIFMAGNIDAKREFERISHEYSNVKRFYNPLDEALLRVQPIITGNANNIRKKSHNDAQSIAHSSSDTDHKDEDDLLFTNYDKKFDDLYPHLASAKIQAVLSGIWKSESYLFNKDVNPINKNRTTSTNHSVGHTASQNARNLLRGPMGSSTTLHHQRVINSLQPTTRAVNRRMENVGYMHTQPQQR
B4: Vacuolar protein 8 (Saccharomyces cerevisiae), P39968 (parent)
chain: B1 partner
partner: B1 chain
B5: Vacuolar protein 8 (Saccharomyces cerevisiae), P39968 (parent)
chain: B1 partner
partner: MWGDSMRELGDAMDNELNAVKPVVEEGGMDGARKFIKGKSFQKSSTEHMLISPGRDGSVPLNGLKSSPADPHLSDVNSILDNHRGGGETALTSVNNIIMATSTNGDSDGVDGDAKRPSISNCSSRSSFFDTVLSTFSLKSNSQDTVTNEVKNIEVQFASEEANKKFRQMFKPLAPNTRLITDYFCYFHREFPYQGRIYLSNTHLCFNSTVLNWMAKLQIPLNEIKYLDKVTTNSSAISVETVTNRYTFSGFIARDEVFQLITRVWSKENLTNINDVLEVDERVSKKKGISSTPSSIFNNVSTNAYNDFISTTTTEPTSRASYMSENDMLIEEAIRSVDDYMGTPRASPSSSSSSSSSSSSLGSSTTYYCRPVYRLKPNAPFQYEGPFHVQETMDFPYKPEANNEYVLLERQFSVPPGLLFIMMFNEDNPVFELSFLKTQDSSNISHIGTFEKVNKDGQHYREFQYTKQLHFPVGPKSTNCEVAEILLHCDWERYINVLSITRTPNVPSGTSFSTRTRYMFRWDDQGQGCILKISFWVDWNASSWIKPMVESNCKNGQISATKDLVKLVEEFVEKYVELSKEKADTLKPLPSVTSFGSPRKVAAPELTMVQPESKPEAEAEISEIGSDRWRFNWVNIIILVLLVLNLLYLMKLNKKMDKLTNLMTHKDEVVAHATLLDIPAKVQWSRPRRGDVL
B6: Vacuolar protein 8 (Saccharomyces cerevisiae), P39968 (parent)
chain: B1 partner
partner: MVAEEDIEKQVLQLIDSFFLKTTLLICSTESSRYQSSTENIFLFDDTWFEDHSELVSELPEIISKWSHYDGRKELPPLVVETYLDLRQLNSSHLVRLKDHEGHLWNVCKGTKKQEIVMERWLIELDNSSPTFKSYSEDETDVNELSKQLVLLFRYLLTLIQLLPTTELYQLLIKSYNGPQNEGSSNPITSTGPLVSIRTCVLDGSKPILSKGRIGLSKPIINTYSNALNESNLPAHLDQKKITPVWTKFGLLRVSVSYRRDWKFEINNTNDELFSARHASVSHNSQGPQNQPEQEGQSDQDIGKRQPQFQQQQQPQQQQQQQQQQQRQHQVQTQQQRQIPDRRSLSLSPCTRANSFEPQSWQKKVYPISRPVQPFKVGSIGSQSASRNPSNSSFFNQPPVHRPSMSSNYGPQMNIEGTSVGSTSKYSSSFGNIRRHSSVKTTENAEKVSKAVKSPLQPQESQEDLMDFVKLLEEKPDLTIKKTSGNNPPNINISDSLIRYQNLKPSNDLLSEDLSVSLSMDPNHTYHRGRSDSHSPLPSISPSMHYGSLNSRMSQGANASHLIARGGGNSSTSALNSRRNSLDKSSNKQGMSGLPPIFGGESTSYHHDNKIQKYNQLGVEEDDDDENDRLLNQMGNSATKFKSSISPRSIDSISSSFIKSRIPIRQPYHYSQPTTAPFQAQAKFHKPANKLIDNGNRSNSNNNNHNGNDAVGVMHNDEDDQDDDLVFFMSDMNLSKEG

In one test the parent is B1. The conditions noted are these: with vac8_yeast VAC8, P39968.
For A307R, the “effect of a mutation on the interaction” value is given as “decreasing interaction strength”.

Turning to F319E, the “effect of a mutation on the interaction” value was “disrupting interaction strength”.

P299S: the “effect of a mutation on the interaction” value is “with no effect”.

Consider I295R, for which the “effect of a mutation on the interaction” value is “decreasing interaction strength”.

As for K301E, the “effect of a mutation on the interaction” value is given as “decreasing interaction strength”.

Turning to S303A, the “effect of a mutation on the interaction” value is reported as “with no effect”.

Turning to I295R;A307R;F319E, the “effect of a mutation on the interaction” value is “disrupting interaction strength”.

Variants of B2 are the subject of another test. To be noted: with vac17_yeast VAC17, P25591.
As for R276E;R317E;R359E, the “effect of a mutation on the interaction” value is reported as “with no effect”.

In a further test the parent is B3. The conditions noted are these: with tco89_yeast TCO89, Q08921.
As for R276E;R317E;R359E, the “effect of a mutation on the interaction” value is “with no effect”.

The next test covers variants of B4. The conditions noted are these: with nvj1_yeast NVJ1, P38881.
For the variant R276E;R317E;R359E, the “effect of a mutation on the interaction” value is listed as “disrupting interaction strength”.

The variants in another test derive from B4. The conditions noted are these: with nvj1_yeast NVJ1, P38881. This is another data set of the same source.
L55R: the “effect of a mutation on the interaction” value is “disrupting interaction strength”.

Take A51R: the “effect of a mutation on the interaction” value was “disrupting interaction strength”.

In the next test the parent is B5. To be noted: with lam6_yeast LAM6, Q08001.
Turning to R276E;R317E;R359E, the “effect of a mutation on the interaction” value was “with no effect”.

A further test covers variants of B6. To be noted: with atg13_yeast ATG13, Q06628.
In the case of R276E;R317E;R359E, the “effect of a mutation on the interaction” value is recorded as “disrupting interaction strength”.
